Reference: PMC12680531

T1: cell surface TM4SF4 of human cancer cell lines, P48230
T1 chain: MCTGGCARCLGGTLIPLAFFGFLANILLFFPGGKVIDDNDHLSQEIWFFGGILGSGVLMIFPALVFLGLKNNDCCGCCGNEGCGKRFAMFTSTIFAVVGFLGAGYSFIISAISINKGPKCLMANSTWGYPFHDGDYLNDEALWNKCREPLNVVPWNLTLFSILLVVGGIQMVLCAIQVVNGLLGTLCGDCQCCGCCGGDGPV


Target: T1, cell surface TM4SF4 of human cancer …
Assay: flow cytometry on cells
Conditions: chain shown with the change, n = 3, parent: est. 100, read off a plot

Binder | percent of parent (A549 cells) | percent of parent (Calu-3 cells)
humanized 2B7 antibody Hz2B7-1.1 L:N31V (protein) chain 1: EITLKESGPTLVKPTQTLTLTCTFSGFSLSTYGIGVSWIRQPPGKALEWLAHIWWNDNKYYNTALKSRLTITKDTSKNQVVLTMTNMDPVDTATYYCARKEGSSAPFAYWGQGTLVTVSS chain 2: DIVMTQSPDSLAVSLGERATINCKSSQSLLVSSNQKNYLAWYQQKPGQPPKLLIYFASTRESGVPDRFSGSGSGTDFTLTISLMQAEDVAVYYCQQHYRTPPTFGQGTKVEIK | 97% | 87%
humanized 2B7 antibody Hz2B7-1.1 L:N31F (protein) chain 1: EITLKESGPTLVKPTQTLTLTCTFSGFSLSTYGIGVSWIRQPPGKALEWLAHIWWNDNKYYNTALKSRLTITKDTSKNQVVLTMTNMDPVDTATYYCARKEGSSAPFAYWGQGTLVTVSS chain 2: DIVMTQSPDSLAVSLGERATINCKSSQSLLFSSNQKNYLAWYQQKPGQPPKLLIYFASTRESGVPDRFSGSGSGTDFTLTISLMQAEDVAVYYCQQHYRTPPTFGQGTKVEIK | 130% | 100%
